Measured values published in patent publication US20060068465.
Where a chain is given by its changes, count along the chain named.

B1: yeast UBP2 (protein)
chain: MPNEDNELQKAIENHHNQLLNQDKENADRNGSVIEDLPLYGTSINQQSTPGDVDDGKHLLYPDIATNLPLKTSDRLLDDILCDTIFLNSTDPKVMQKGLQSRGILKESMLSYSTFRSSIRPNCLGSLTDQVVFQTKSEYDSISCPKYNKIHVFQAVIFNPSLAEQQISTFDDIVKIPIYHLKVSVKVRQELERLKKHVGVTQFHSLDHLHEYDRVDLSTFDSSDPNLLDYGIYVSDDTNKLILIEIFKPEFNSPEEHESFTADAIKKRYNAMCVKNESLDKSETPSQVDCFYTLFKIFKGPLTRKSKAEPTKTIDSGNLALNTHLNPEWLTSKYGFQASSEIDEETNEIFTEYVPPDMVDYVNDLETRKIRESFVRKCLQLIFWGQLSTSLLAPNSPLKNTKSVKGMSSLQTSFSTLPWFHLLGESRARILLNSNEQTHSPLDAEPHFINLSVSHYYTDRDIIRNYESLSSLDPENIGLYFDALTYIANRKGAYQLIAYCGKQDIIGQEALENALLMFKINPKECNISELNEATLLSIYKYETSNKSQVTSNHLTNLKNALRLLAKYTKSDKLKFYVDHEPYRALSQAYDTLSIDESVDEDIIKTAYSVKINDSPGLKLDCDRALYTIAISKRSLDLFNFLTEECPQFSNYYGPEKLDYQEALKLLQVNENASDETILKIFKQKWFDENVYEPDQFLILRAALTKISIERNSTLITNFLLTGTIDPNSLPPENWPTGINNIGNTCYLNSLLQYYFSIAPLRRYVLEYQKTVENFNDHLSNSGHIRRIGGREISRGEVERSIQFIYQLRNLFYAMVHTRERCVTPSKELAYLAFAPSNVEVEFEVEGNKVVDQTGVLSDSKKETTDDAFTTKIKDTSLIDLEMEDGLNGDVGTDANRKKNESNDAEVSENEDTTGLTSPTRVAKISSDQLENALEMGRQQDVTECIGNVLFQIESGSEPIRYDEDNEQYDLVKQLFYGTTKQSIVPLSATNKVRTKVERFLSLLINIGDHPKDIYDAFDSYFKDEYLTMEEYGDVIRTVAVTTFPTILQVQIQRVYYDRERLMPFKSIEPLPFKEVIYMDRYADTENPLLLAKKKETEEMKQKLKVMKNRQRELLSRDDSGLTRKDAFLESIKLLESDTIKKTPLKIEAANDVIKTLRNNVQNIDNELMKLYNDINSLEEKISHQFDDFKEYGYSLFSVFIHRGEASYGHYWIYIKDRNRNGIWRKYNDETISEVQEEEVFNFNEGNTATPYFLVYVKQGQEGDIEPLKRILK
B2: synaptic USP (synUSP), full length (protein)
chain: MAPRLQLEKAAWRWAETVRPEEVSQEHIETAYRIWLEPCIRGVCRRNCRGNPNCLVGIGEHIWLGEIDENSFHNIDDPNCERRKKNSFVGLTNLGASCYVNTFLQVWFLNLELRQALYLCPSTCSDYTKGDGIRGGKDYEPQTICEHLQYLFALLQNSNRRYIDPSGFVKALGLDTGQQQDAQESSKLFMSLLEDTLSKQKNPDVRNVVQQQFCGEYAYVTVCSQCGRESKLVSKFYELELNIQGHKQLTDCISEFLKEERLEGDNRYFCENCQSKQNATRKIRLLSLPCTLNLQLMRFVFDRQTGHKKKLNAYIGFSESLDMEPYVEHKGGSFVYELSAVLIHRGVSAYSGHYIAHVKDPQSGDWYKFNDEDIEKMEGKKLQLGIEEDLTEPSKSQTRKPKCGKGTHCSRNAYMLVYRLQTQEKNHTMVQVPAFLQELVDRDNSKFEEWCVEMAEMRRQSVDKGRAKHEEVKELYQRLPAGAEPYEFVSLEWLQKWLDESTPTKPIDNNACLCSHDKLHPDKISIMKRISEYAADIFYSRYGGGPRLTVKALCKDCVVERCRILRLKNQLNEDYKTVNNLLKATMKGSDGFWVGKSSLRSWRQLALEQLDEQDGEAEQSNGKINGSPFSKDESKEEKKEEEEELNFNEDILCPHGELSISENERRLVSQEAWSKLQQYFPKAPEFPSYKECCSQCKILEREGEENEALHKMIAKEQKTSLPNLFQDKNRPCLSNWPEDTDALYIVSHFFLDEWRKFVRKPARSTPVSSVGNAALLCPHGGLMFTFPSLTKEDSKLIALIWPSEWQMIQKLFVVDKVIKITRIEVGDVNPSQTQYISEPNLCPDCREGLLCQQQKDLREYTQATIYVHKVVDNKKVMKDSAPELNVSSSETEEDKEEAKPDGEKDPDFNQSNGGTKRQKTSQQGYVAYQKQVIRRSTRHRKVRGEKALLVSANQTLKELKIQIMHAFSVAPFDQNLSIDGKILNDDCATLGTLGVIPESVILLKADEPIADYAAMDDVMQVCMPEEGFKGTGLLGH
B3: synUSP in which Cys98 was replaced with Ala (protein)
chain: B2 chain with C98A

molecular target: GST-Ub52 fusion protein [GST: P08515]
Sequence (P08515 whole entry, looked up, the tested form may be a part): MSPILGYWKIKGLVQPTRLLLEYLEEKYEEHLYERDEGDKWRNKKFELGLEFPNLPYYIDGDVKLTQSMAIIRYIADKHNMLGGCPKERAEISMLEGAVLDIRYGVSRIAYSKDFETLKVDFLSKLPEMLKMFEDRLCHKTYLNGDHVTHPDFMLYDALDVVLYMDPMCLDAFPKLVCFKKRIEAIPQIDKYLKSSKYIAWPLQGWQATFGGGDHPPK

| Protein | USP activity: cleavage of GST-Ub52 on co-expression in E. coli, SDS-PAGE with Coomassie staining |
| --- | --- |
| B1 | The GST-Ub52 protein was degraded to a band of 30 kDa by the co-expression of yeast USP2 |
| B2 | the amount of the GST-Ub52 protein of 45 kDa decreased, and the proteolysis product of 30 kDa markedly increased along with it |
| B3 | The activity of synUSP disappeared by either replacing Cys98 with Ala |
